Experimental data: patent US20230340152A1 (published 2023)

Experiments:
[1] = target: T1, CD73 construct with chicken N- and C-terminal domain sequence with human V144 and N185 knocked in (chicken; human); experiment: SPR (ProteOn), CD73 variant immobilized
T1 chain: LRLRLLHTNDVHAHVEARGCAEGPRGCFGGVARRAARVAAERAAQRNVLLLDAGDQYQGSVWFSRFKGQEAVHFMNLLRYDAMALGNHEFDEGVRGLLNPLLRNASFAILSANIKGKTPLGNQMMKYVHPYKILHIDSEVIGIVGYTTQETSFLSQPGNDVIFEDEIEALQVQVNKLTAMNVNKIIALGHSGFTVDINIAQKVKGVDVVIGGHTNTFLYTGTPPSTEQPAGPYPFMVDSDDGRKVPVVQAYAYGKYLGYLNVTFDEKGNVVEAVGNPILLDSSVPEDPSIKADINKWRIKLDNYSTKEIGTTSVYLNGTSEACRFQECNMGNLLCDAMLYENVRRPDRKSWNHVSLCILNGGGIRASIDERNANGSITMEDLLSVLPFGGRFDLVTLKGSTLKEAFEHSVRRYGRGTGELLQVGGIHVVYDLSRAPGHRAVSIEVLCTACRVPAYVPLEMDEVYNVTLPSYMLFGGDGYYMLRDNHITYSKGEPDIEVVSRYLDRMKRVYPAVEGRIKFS
Protocol: Binding of MEDI9447 to wild-type and mutant CD73 proteins was measured by surface plasmon resonance (SPR) using a ProteOn instrument (BioRad). CD73 crude cell supernatant protein samples were diluted to 3 µg/ml in PBS, 0.005% Tween-20, pH 7.4 (BioRad) and immobilized to ~400 RU on a HTG tris-NTA sensor chip (BioRad) pre-activated with 10 mM NiSO₄, 10 mM MES, pH 6.0 (BioRad). An equivalently diluted crude cell supernatant sample from non-transfected cells was included as a reference channel control. Sensorgrams were recorded by flowing two-fold dilutions of MEDI9447 prepared in PBS, 0.005% Tween-20, pH 7.4, ranging from 5 nM to 0.31 nM. […] Antibody binding was measured at a flow rate of 100 µL/min with a 3 min association phase and 20 min dissociation phase. The sensor chip surface was regenerated between each run by an 800 s injection of 300 mM EDTA, pH 8.5 (BioRad) at a flow rate of 30 µL/min. Binding kinetics were analyzed using the ProteOn data analysis software. Double referencing was performed and, unless noted otherwise, a 1:1 Langmuir binding model was utilized to fit the data. Some CD73 variants containing mutations within the amino acid region 171-188 fit poorly to a 1:1 model (i.e., Chi² values >10% of Rmax). Where noted, these variants were fit with a heterogenous antigen (2:1) model. […]

[2] = target: T1, CD73 construct with chicken N- and …; experiment: SPR, MEDI9447 dilutions from 5 nM to 0.3 nM
Excerpt: FIG. 24C depicts a close-up of the epitope residues located within the N-terminal domain of CD73. The most important residues for binding are shown highlighted and less impactful positions (Y135, K136, and N187) are in pink. The HDX interface is overlaid in blue. FIG. 24D depicts a surface representation showing that the epitope forms a near contiguous binding surface. FIG. 24E depicts a crystal structure of the open conformation of CD73 showing the position of the epitope at the apical, lateral surface of the N-terminal domain. […] In all crystal structures, the CD73 N-terminal domain, linker region, and C-terminal domain are depicted in yellow, orange, and blue, respectively.
Binding of MEDI9447 to wild-type and mutant CD73 proteins was measured by surface plasmon resonance (SPR) using a ProteOn instrument (BioRad). CD73 crude cell supernatant protein samples were diluted to 3 µg/ml in PBS, 0.005% Tween-20, pH 7.4 (BioRad) and immobilized to ~400 RU on a HTG tris-NTA sensor chip (BioRad) pre-activated with 10 mM NiSO₄, 10 mM MES, pH 6.0 (BioRad). […] Sensorgrams were recorded by flowing two-fold dilutions of MEDI9447 prepared in PBS, 0.005% Tween-20, pH 7.4, ranging from 5 nM to 0.31 nM. […] Antibody binding was measured at a flow rate of 100 µL/min with a 3 min association phase and 20 min dissociation phase. […] Binding kinetics were analyzed using the ProteOn data analysis software. […]

[3] = target: T2, Cynomolgus CD73 on MK-1 cells (cynomolgus, UniProt A0A2K5V5U7 27-549); experiment: flow cytometry, MK-1 cells
T2 construct: whole, on cells; also called MK-1 (cyno)
T2 sequence: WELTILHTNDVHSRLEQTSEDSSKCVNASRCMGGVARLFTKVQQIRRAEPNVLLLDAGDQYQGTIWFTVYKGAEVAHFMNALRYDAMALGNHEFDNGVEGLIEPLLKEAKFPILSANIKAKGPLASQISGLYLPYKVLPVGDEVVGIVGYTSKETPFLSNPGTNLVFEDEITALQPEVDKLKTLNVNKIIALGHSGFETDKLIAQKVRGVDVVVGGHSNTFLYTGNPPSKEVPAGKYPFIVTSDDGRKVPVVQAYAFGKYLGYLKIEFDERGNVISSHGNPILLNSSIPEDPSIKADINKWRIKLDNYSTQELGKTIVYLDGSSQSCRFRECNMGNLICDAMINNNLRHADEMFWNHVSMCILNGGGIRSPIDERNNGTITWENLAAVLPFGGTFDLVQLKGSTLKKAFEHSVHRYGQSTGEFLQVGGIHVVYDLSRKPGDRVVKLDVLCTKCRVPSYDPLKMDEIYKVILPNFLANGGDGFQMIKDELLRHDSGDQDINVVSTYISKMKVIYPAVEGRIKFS
Protocol: Binding of MEDI9447 to native CD73 expressed on human, murine, and cynomolgus monkey cell lines was characterized by flow cytometry. The cells were incubated with various concentrations of MEDI9447 and antibody binding was monitored with and fluorophore-labeled anti-human Fc antibody. A plot of the median fluorescence intensity as a function of the MEDI9447 concentration was fitted nonlinearly using a one-site binding isotherm model to calculate the equilibrium dissociation constant.

B1: MEDI9447 (antibody, human IgG1, lambda, V domains shown)
VH: EVQLLESGGGLVQPGGSLRLSCAASGFTFSSYAYSWVRQAPGKGLEWVSAISGSGGRTYYADSVKGRFTISRDNSKNTLYLQMNSLRAEDTAVYYCARLGYGRVDEWGRGTLVTVSS
VL: QSVLTQPPSASGTPGQRVTISCSGSLSNIGRNPVNWYQQLPGTAPKLLIYLDNLRLSGVPDRFSGSKSGTSASLAISGLQSEDEADYYCATWDDSHPGWTFGGGTKLTVLG
notes: Human IgG1-TM (L234F, L235E, P331S), lambda light chain; also called clone 10.3 antibody; 73combo3
Kd [1]: 0.079 nM | fold of the KD for wild-type CD73 [2]: < 20 fold | Kd [3]: 0.084 nM
